From publication PMC4135234
Where two headings read alike, the source gives them in different places.

T1: GST-FLAG-LIN28A (human, UniProt Q9H9Z2 1-209)
T1 sequence: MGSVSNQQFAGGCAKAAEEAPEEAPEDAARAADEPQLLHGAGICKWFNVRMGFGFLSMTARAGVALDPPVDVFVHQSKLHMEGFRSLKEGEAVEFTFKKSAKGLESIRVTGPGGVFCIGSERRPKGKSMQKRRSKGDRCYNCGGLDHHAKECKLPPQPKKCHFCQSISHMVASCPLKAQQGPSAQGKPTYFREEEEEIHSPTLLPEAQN


Experiments:
GST-FLAG-MSI2 [1] = biological target: T2, GST-FLAG-MSI2 (human, UniProt Q96DH6 1-328); assay: competition
GST-FLAG-MSI1 = GST-FLAG-MSI1 (human, UniProt O43347 1-362); assay: competition
GST-FLAG-LIN28A = biological target: T1, GST-FLAG-LIN28A; assay: competition
GST-FLAG-MSI2 [2] = biological target: T2, GST-FLAG-MSI2; assay: competition; remark: listed apart in the source
GST-FLAG-p53 = GST-FLAG-p53 (human, UniProt P04637 1-393); assay: fluorescence polarization
Sequence of GST-FLAG-p53 (P04637 whole entry): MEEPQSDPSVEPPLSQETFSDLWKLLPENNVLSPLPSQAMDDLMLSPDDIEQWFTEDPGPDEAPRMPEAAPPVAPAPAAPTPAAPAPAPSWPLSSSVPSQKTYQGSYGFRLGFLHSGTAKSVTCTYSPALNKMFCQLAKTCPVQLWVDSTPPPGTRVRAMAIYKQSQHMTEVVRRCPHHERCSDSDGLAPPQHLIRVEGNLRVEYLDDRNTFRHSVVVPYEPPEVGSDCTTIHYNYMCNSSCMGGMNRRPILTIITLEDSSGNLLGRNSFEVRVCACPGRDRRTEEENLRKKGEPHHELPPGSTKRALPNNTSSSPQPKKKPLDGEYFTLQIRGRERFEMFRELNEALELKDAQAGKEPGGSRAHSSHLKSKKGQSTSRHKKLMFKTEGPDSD

T2 sequence (Q96DH6 whole entry): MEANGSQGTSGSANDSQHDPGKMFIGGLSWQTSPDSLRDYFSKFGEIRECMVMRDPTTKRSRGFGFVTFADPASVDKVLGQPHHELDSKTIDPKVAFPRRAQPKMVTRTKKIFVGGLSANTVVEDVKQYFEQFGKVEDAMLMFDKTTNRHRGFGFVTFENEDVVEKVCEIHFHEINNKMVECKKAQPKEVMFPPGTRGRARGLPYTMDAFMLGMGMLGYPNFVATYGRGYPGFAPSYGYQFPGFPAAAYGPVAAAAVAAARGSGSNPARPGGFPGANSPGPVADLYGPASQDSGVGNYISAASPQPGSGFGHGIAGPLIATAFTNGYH
Sequence of GST-FLAG-MSI1 (O43347 whole entry): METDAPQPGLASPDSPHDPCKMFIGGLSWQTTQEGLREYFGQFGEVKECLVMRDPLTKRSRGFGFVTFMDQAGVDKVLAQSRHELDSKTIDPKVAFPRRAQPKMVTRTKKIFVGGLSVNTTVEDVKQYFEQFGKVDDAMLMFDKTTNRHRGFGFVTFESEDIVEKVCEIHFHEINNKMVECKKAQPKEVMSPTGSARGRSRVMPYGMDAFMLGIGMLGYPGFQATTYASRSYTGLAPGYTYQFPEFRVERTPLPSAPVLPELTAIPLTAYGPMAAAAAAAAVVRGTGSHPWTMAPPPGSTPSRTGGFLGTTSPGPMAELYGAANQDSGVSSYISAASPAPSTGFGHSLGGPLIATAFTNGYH

Row | Binder | IC50 (GST-FLAG-MSI2 [1]) [µM] | IC50 (GST-FLAG-MSI1) [µM] | IC50 (GST-FLAG-LIN28A) [nM] | IC50 (GST-FLAG-MSI2 [2]) [nM] | binding result (GST-FLAG-p53)
1 | GUAGUAGU (ssRNA) [MSI Oligo #5 (unlabeled MSI FP oligo)] | 4.6 | 5.6 | 500 | 1300 ± 200 | 
2 | GUAGUAGU (ssRNA, 5' C9 spacer) [MSI FP oligo (Cy3-C9-Oligo #5)] |  |  |  |  | no binding
